PMC7022206
pKd: −log10 of the molar value.

Tests used:
[1] = target: NLS-conjugated polymersome nanocarriers (bipartite nucleoplasmin NLS peptide on PMOXA-PDMS-PMOXA polymersomes); experiment: dual-color fluorescence lifetime cross-correlation spectroscopy
[2] = target: Cysteine-tagged FG domain of human Nup153 (human); experiment: SPR

pKd [1]: > 9.40 | pKd [2]: 7.61
Substance: Kapα•Kapβ1 (from UniProt P52292;Q14974) (complex)
